Results: patent publication US7105156 (University of California, dated 2006)

Target: T1, p56^RB protein (amino-truncated 56 kDa RB protein, C-terminal half of the RB protein) (Homo sapiens (Human), UniProt P06400 379-928)
T1 sequence: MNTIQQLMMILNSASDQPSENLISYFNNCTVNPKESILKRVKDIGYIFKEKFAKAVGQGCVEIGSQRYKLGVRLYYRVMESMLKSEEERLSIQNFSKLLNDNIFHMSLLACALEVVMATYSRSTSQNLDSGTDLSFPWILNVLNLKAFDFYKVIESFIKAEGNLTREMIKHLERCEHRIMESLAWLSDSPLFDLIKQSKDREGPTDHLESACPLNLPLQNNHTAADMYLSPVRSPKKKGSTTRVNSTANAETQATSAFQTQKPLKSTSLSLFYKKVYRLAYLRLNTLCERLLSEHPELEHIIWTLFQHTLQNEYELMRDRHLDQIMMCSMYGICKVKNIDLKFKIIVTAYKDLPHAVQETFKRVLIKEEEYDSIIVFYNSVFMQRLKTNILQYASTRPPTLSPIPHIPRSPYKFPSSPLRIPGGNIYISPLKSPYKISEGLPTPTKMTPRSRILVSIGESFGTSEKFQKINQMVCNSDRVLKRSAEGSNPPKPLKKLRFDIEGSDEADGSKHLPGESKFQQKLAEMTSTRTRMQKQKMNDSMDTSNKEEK
Experiment: cell-based or functional assay

ENLFCSEEMPSSDDEATA [T peptide (SV40 T-antigen peptide, amino acids 101-118)]
percent of injected cells incorporating BrdU (Saos-2 cells, 5 mM T peptide, 500 to 1000-fold molar excess over p56^RB): ~70%
